Assay results as given in the domain aggregation screens of Martell et al. (2025).

Test: soluble fraction after stress (log2 fold change); higher = more stays soluble; pooled small domains, quantitative proteomics
Details: stress: 75 degC
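Further: 20 min heating vs room temperature control held 20 min.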

In order of rising “soluble fraction (log2)” value:
1. HMSMRILNHTVVKILKRYRIATDEQLQPLLDEAERSGRSLQDVVLDAKLVSETELTKLFADYAD  -3.66
2. HMSLPDREVVLETSSDSYYHFKTDHFQRQITYSAVRNAPVRLVTISAERAFEVISLNRRGERPEHLE  -3.24
3. HMSKITNALLMMKLLSNGKVYSVKELSEELGVTERMVRNYKEQLEMSGYIIESFKGPGGGYFINKN  -2.61
4. HMSNVDYSQFKKDTVVEHTKFGRGIIIQTSGDGEDKIAAIAFKGLGVKRFSLAIAAASLKIIGKNDE  -2.49
5. HMSKKAIVINLLKRPDGASLKDIMQATYWQAHSVRGFISGSLTKKMGLNVESFKRPDGERAYRIN  -2.47
6. HMSNETLFEFFEKNISQLTPTLVDNINRSLAVHSKKNVKLAIMIAAKSNVRNWNYISAILNRWEKE  -2.4
7. HMSLSQLGLTPRQTDVLALLLKGQPNKLIARELGLSVETVKDHVAAVLRALNVSSRTQAVIAVSQMLQ  -2.13
8. HMSNPPLPFLAKTKVSWTGEQDGDLGFLENEVVKVFHVVDELWWQGSLSRNGAEGIFPRDFVEVISAP  -2.09
9. HMSNIAQRLVLENALAKLNQEQQTIIDLRIIKGYSVAETARLLGKTESAVRTAQYRALKELAGILEED  -2.07
10. HMSLNQRIKEARIKMGYTQEQLGNLIGVAKTTISGYEKNREPDAATIGLIIDALKVDANFLFQ  -2.06
11. HMSPEVEEISIDHLKAGMRILSDLRLPNGTLVAPKGSVVDAHFIKIVENYVISYFGNPFPDRIKVIM  -1.95
12. HMSKPTLTDELLTLDLFEEIIKAKENAKGANKRFSLVGFLESKYIVDQEMLPKVNVKVTEYYNLTREN  -1.8
13. HMSKNVTMPNLVGYSMRQAKAELLSRGLHLGKLIYVNDIATNNVISQLYRNAEIEPGVKIESESYVDLVVG  -1.76
14. HMSLIEQKSQIPLVQGGQRVDKVAAALFTDFSRAELTGWIQQGALTLDGAVVKPKYKVLGGEWLYLRASQS  -1.75
15. HMSLSVEESYKLLDISPSAGDEEITKKFRLLALKYHPDKNRSKIEWANNIMSRLNQAYSVIMSSRFESNAE  -1.6
16. HMSLPALSAEEQKIVDALHGTPKGVDDIIAETGISSGALLRSLTMLELKKVIVRLPGNRIAPK  -1.53
17. HMSKSPELMEKIKEFAEGYFRENGETPSNKTIAGAMGMGRSTVYYYLVDMAQRGMISYENGVISTEKIRKL  -1.4
18. HMSLNIIEITAKKEINELKSFNIIYFNFDKNNSIYEYKISEREKKEILEIEKIIKNSDNVTNYEIRYSF  -1.31
19. HMSNNILEISSNKKNMKIQENKNLVESYYSKTENLYSFKLVFKNKRDLDQFLKEVYEDDSTINYKTSS  -1.27
20. HMSLNSELIARIENLIASIEDKRSWGYGFAESVLGQVQAGATLSPRQLEIIAKLEKENSYSVQLERQ  -1.16
21. HMSMEQAKAEEIEKLGDNAPERLQAAALFAEKFFPQDVMDAVYKITETADGVRAIEHIMQTVK  -1.11
22. HMSLEDNEVIQRMKVILDRFDEETAVDRTTAFKAVLDHIGKMDAESKTLEHMAEMLEALLDKVLEE  -1.09
23. HMSNEDAYIKLRNGFLATLSEADLLLFTLREEGKTQKEIADQLGYKTHSAVSKRLQTMRGQFEGYLKTQ  -1.03
24. HMSMANKKDFILDTAQKLFMEQGFDQTSISQILEATQIARGTLYYYFSSKEEIMDAIIERTIEQ  -0.966
25. HMSKSIGEALKEERRSLGLTQEQFIKGIISESFYSKVERGKNEIVAVDLLKILAANNISEEEFLSKLN  -0.694
26. HMSPRQVTAVRSGSPMPVLPGEDWRLYDASGALVARGSGAAPIPKSTGLLRLNSEGLDGLADRWIWVL  -0.553
27. HMSPLPDRESLGAIEKLISLLGSSEWTVREKATRELGAFGYLARPVLQRELATSGDPEVSRRLERILSNL  -0.545
28. HMSKYLAFTVKKNDELLPFIEKALNGISHTKAKAILANGGAMVNKNTITQYNYPLTPGMTVEISRH  -0.5
29. HMSLDLNENEKTIFDIIQNKKTIRLSELKIEAGLSNKGWDKAMKSLTKQGLAKVVKTEDQLTVKLL  -0.499
30. HMSKEKQILQLLQHGYSQRRIADTLSVSRNTVAKVAKAAIEHPVSSDSLDSIDELELHQKLFPEEVLI  -0.486
31. HMSLIDLLQLNRKSKKLTLMNLVEMTGLSYGKVYRIFNGGIDKPTPDSLKLLAKALQLDYSYLFHKAGYL  -0.468
32. HMSPLTPEEAEVLRILGDHGDMTVDNIATEGKMSAAAVLRVLGVLSAYGLAVPSGPGRWGSRAA  -0.462
33. HMSKTQVKSVLDDIKGIGVVRRKALIKHFNDIEAIKAAQLAELKAVAGMDSKSAQSVYDFFHK  -0.453
34. HMSNTGDIIRKLREESGVTAKELAHRIGLSASQMSRLESGKRRINSEVLTRIARALEVAPSQLID  -0.439
35. HMSPPPRPSHPEAAGLRHLAFEVDNIDDAVRHLDRLGVPHEPVRTDEYTGRRFLFFTDPDRLPLELYEK  -0.432
36. HMSLGSSLFHARKKSGLTQEAVAEKLGVSRQTISKWETNETLPDIRQSKGLAMLYHMTLDELIE  -0.422
37. HMSNTIFGINGPVVTVASKDFSMQEMVYVGNERLVGEVISIDDDLTTIQVYEVTTGLKPGEPVVGTGSAM  -0.34
38. HMSKSENLYSAARELIPGGVNSPVRAFTGVGGTPLFIEKADGAYLYDVDGKAYIDYVGSWGPMVLGHNHP  -0.337
39. HMSKNDLAGDEADVYKLLSVETGKPISDLVNRLPFGKSKTREILNTLAEKGFVYISGSGRGTKYHR  -0.296
40. HMSKTKDVLVQLMAERGLTQSDIARALSVRPQAVQQWVSGKTRPTGKNLEALAEFLQLPPAVIVHGP  -0.282
41. HMSLQEISDLISQAERADQEQLKEVLKQLHQVESGNQPMSKGFLSSALSTLNKYPALITSIGQLLFKLAT  -0.217
42. HMSKNTFIGNIDDKELYVGSGRYGPFMLYDGKFTNITRYLSDESKELTDITIDDYSKIVNNARPK  -0.175
43. HMSKLIDQELINFFKNQIESKSFRYGVSIEDSYEEIKSNQIKFYGEQEDKLKAIDNAFIELKRERAGIR  -0.168
44. HMSNIIIYPNPTNDGLIHIKGSKFPFNYALYNLSGKLIETGKKNQIQLNDRGVYLLKIQTEGQTYFKKII  -0.16
45. HMSKSIEEIYDEAIRSLANEEYDSAKKLFSYLIDNFSDPEKLPLSLFWLGEIEFSSSNFDQSKIHYIE  -0.15
46. HMSMVGNIEKILVTGESKKSSELLAGRTENNRVVNFTGEKVLIGSMVNVRIEEVFPNSLGGSYLPS  -0.133
47. HMSLGSQEYSIGFRNGDSTYHYIDKALKELAYEGVIDELSTQWFGSSRAVDFPSQKDALSELGYIA  -0.123
48. HMSNEIIFNQKSITRFLMNPENNSPMIYPLELGHEMKVIKKNNDWLNVTDEKTGLNGWVISDDFGLTKPEG  -0.118
49. HMSMDYYNILGVNRNASTGEIKKAYKRASMQHHPDRGGNSDEFIKVQQAYDTLSDNHKRQAYDNP  -0.0907
50. HMSPIQLKYNEYLIYIDEGKINTAEIHGNKITGKLKEGSEYVVTIYPELIASITEKLAENNVQTQLIQ  -0.0829
51. HMSKTDYKILYSDLNREDAKQLSLLLEDKKIPYQTSEDGKTIKIPEGMVNRFRMEVATMGVNF  -0.0248
52. HMSLGTDVVPDFTGKGIKEAKTEFAAYSEGELYIIGEGEKVKEQFPLPGEKVNKNSDLILYV  0.0388
53. HMSMISLPNFVGKDIETVKAWAKENGITLIINKVEDSAKKDTVISQNPTNSDYSKILKGSAFTVNIAKE  0.0389
54. HMSMDYYSTLGVSKTASASDIKKAYRKLAMANHPDKGGDSAKFAKITEAYDVLKDPQKRNNYDQFGTA  0.0592
55. HMSKGKNEVIAYLKAHNDHRLTVAEILDGLKEEGISINRSTIYRNLDKLVENGDILAFKGKDSESAFYQYS  0.0611
56. HMSNYFIEISKDSLARINDEIELDVLRETSDTIIISQEEKTNTISSFIKVLFERQIDILSIQNR  0.0911
57. HMSNYYNILGVNKSSTQDEIKKAFRKKAVEHHPDKGGNEATFKKINEAYNTLSDNNKRHMYDMQQSG  0.119
58. HMSPIPLPVERAIHKLGSDISLARRRRHISQASLAERMGASLSTVRRMEKGDVRVPIHFFARALHVFG  0.123
59. HMSKRIFPNEFQRNSPDAMVMLDKMNLSRINVDPLTKSLTLNGGGSVKTLLNGREVSAVEIAALSP  0.124
60. HMSKYERVYTGSEINVNHLKSQLEDAGISSVVRNDHESAIRAGFGSDYDRGVLLFVEKDNLLRAKHIIEKT  0.126
61. HMSLGPNAYGKPATALNILRETVMGKELFDHAFKTYSKRWMFKHPSPEDFFRTMEDASAVDLDWFWR  0.178
62. HMSPDALSNLPIGSEIKFTLWDGTEKRLVKHPAAYQFSRPFWMNLNEYTYVPVNRIPKNYEVIRL  0.182
63. HMSLTTKSVEETLGITRQTLHNWIKEGLLPAPKKDFRNWYIWSDEDLENLRNIIEQKTLINNKKQAV  0.203
64. HMSKHLWNKVLPKVTTANITNLINQAIRKGEWRMDNKGVVHIIWRYRGKIIEVTGYLKDKVFNVGNAWVR  0.226
65. HMSLSEGVSADVVADVQARLMELGYMDEDDPDGNFSESTRIAVEHFQQQAGLPVTGTVDKATLDALNSPD  0.264
66. HMSKPVVWIVGDSTVSAFTDNYYYPRYGWGTQIDKYLDGTFEVKNIALSGRSSTSYTADKEYGELIAG  0.293
67. HMSPEWTPAEQDAIDKASEGEYGEALQRVLSGDYEPMDIPDALWGVQQVADKDTYSSIQKKIADIGN  0.383
68. HMSNAIDDAVEKVISENLDLAKERGLQSMGPLMGLVMKELGGTADGKAVSEALRRKISEISD  0.413
69. HMSPQIDYFDDEELDVYRQIAPEAYTDEQIEVFRDILYTLRPEEVEEWLISLEKREINLPLILRQEAIELI  0.481
70. HMSNSWSYSEFMKAVESGQVESVTISGQSIKGTSRGGQAFESVLPAFDDKLMDTLLVNDVEVIGEKP  0.556
